Target: SARS-CoV-2假病毒 (病毒包膜糖蛋白 on MLV pseudovirus) (SARS-CoV-2, UniProt P0DTC2 14-1273)
Assay: cell-based or functional assay

B1: 纳米抗体SA4 (VHH)
VHH: QVQLQESGGGLVQPGGSLRLSCAASGSFFEFGTVGWFRQAPGKQRELVSRITGNDHRYYADSVKGRFTISRDNDETTVYLQMDSLKPEDTAIYHCNILEGQRWSNYWGQGTQVTVSH
With B1 the “假病毒中和实验 IC50 (GFP by flow cytometry, VeroE6-hACE2 cells)” value was 12.7 nM.

— patent publication CN115594758A (NANJING JINGZHUN BIOTECHNOLOGY CO LTD, dated 2023)
